Laboratory results from publication PMC2133107 (The Journal of Cell Biology, 1999).

B1: HIV Rev protein (natural protein)
chain: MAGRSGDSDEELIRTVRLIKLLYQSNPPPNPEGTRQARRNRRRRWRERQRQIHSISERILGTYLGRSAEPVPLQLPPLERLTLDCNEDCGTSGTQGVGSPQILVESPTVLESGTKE

Key:
[1] = target: Ran wild type, Ran-[γ-32P]GTP (UniProt P62826)
[2] = target: Human CRM1 (recombinant, untagged) (human, UniProt O14980 1-1071)
Human CRM1 (recombinant, untagged) (human, UniProt O14980 1-1071), sequence (O14980 whole entry): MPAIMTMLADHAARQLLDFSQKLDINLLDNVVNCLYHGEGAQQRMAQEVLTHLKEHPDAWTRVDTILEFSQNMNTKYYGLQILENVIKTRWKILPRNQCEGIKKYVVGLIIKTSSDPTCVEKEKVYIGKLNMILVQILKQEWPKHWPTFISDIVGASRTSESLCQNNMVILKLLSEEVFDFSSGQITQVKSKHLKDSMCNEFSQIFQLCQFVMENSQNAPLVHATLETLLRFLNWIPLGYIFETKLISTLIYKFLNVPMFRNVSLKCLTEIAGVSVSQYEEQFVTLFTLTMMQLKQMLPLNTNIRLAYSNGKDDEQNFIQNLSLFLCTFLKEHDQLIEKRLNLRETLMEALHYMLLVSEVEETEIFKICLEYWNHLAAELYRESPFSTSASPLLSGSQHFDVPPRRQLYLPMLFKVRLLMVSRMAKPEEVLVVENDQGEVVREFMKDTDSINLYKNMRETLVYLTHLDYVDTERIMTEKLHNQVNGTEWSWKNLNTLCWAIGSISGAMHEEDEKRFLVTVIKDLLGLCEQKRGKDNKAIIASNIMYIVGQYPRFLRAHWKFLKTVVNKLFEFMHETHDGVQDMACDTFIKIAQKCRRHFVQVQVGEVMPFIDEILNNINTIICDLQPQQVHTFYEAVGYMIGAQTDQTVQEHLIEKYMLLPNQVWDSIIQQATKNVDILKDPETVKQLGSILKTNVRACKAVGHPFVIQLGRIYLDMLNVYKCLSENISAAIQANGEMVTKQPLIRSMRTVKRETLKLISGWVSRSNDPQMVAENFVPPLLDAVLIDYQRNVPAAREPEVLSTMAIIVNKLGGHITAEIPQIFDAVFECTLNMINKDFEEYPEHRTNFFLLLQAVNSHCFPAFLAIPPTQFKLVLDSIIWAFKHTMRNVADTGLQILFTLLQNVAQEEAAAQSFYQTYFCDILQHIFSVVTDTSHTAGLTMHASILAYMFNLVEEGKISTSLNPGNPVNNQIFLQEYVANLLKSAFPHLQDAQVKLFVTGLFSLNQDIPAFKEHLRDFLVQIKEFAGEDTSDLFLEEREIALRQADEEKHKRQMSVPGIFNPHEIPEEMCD

Molecule	Kd [1]	Kd [2]
Human CRM1 (recombinant, untagged) (from UniProt O14980 1-1071) (natural protein; other documents disagree on this pair)	> 1 µM	
CLPPLERLTL [Rev-NES peptide 1]		~50 µM
B1		~0.5 µM
CPVPLQLPPLERLTLD [Rev-NES peptide 2]		~7 µM
